From patent publication US20140220107A1

Legend:
[1] = target: HIV-1 subtype C C3728v2c6 gp160 DC (HIV-1 subtype C isolate C3728v2c6); test: gp160 antigen capture ELISA, 2F5 as capture antibody; cell lysate of transfected HEK293 cells, 48 h (negative control 0.150)
[2] = target: HIV-1 subtype C C3728v2c6 gp160 (HIV-1 subtype C isolate C3728v2c6); test: as above
[3] = target: HIV-1 Ba-L gp145 (HIV-1 Ba-L (subtype B)); test: as above
[4] = target: HIV-1 subtype C C06980v1c3 gp160 (HIV-1 subtype C isolate C06980v1c3); test: as above
[5] = target: HIV-1 subtype C C06980v0c22 gp160 DC (HIV-1 subtype C isolate C06980v0c22); test: as above
[6] = target: HIV-1 subtype C C06980v1c3 gp160 DC (HIV-1 subtype C isolate C06980v1c3); test: as above
[7] = target: HIV-1 subtype C C06838v1c48 gp160 (HIV-1 subtype C isolate C06838v1c48); test: as above
[8] = target: HIV-1 subtype C C06838v1c48 gp160 DC (HIV-1 subtype C isolate C06838v1c48); test: as above
[9] = target: HIV-1 subtype C C06980v0c22 gp160 (HIV-1 subtype C isolate C06980v0c22); test: as above
[10] = target: HIV-1 subtype C C3728v2c6 gp160 DC (HIV-1 subtype C isolate C3728v2c6); test: gp160 antigen capture ELISA, 2F5 as capture antibody; media of transfected HEK293 cells, 48 h (negative control 0.135)
[11] = target: HIV-1 subtype C C3728v2c6 gp160 (HIV-1 subtype C isolate C3728v2c6); test: as above
[12] = target: HIV-1 Ba-L gp145 (HIV-1 Ba-L (subtype B)); test: as above
[13] = target: HIV-1 subtype C C06980v1c3 gp160 (HIV-1 subtype C isolate C06980v1c3); test: as above
[14] = target: HIV-1 subtype C C06980v0c22 gp160 DC (HIV-1 subtype C isolate C06980v0c22); test: as above
[15] = target: HIV-1 subtype C C06980v1c3 gp160 DC (HIV-1 subtype C isolate C06980v1c3); test: as above
[16] = target: HIV-1 subtype C C06838v1c48 gp160 (HIV-1 subtype C isolate C06838v1c48); test: as above
[17] = target: HIV-1 subtype C C06838v1c48 gp160 DC (HIV-1 subtype C isolate C06838v1c48); test: as above
[18] = target: HIV-1 subtype C C06980v0c22 gp160 (HIV-1 subtype C isolate C06980v0c22); test: as above
[19] = target: HIV-1 subtype C C3728v2c6 gp160 DC (HIV-1 subtype C isolate C3728v2c6); test: gp160 antigen capture ELISA, 4E10 as capture antibody; cell lysate of transfected HEK293 cells, 48 h (negative control 0.156)
[20] = target: HIV-1 subtype C C3728v2c6 gp160 (HIV-1 subtype C isolate C3728v2c6); test: as above
[21] = target: HIV-1 Ba-L gp145 (HIV-1 Ba-L (subtype B)); test: as above
[22] = target: HIV-1 subtype C C06980v1c3 gp160 (HIV-1 subtype C isolate C06980v1c3); test: as above
[23] = target: HIV-1 subtype C C06980v0c22 gp160 DC (HIV-1 subtype C isolate C06980v0c22); test: as above
[24] = target: HIV-1 subtype C C06980v1c3 gp160 DC (HIV-1 subtype C isolate C06980v1c3); test: as above
[25] = target: HIV-1 subtype C C06838v1c48 gp160 (HIV-1 subtype C isolate C06838v1c48); test: as above
[26] = target: HIV-1 subtype C C06838v1c48 gp160 DC (HIV-1 subtype C isolate C06838v1c48); test: as above
[27] = target: HIV-1 subtype C C06980v0c22 gp160 (HIV-1 subtype C isolate C06980v0c22); test: as above
[28] = target: HIV-1 subtype C C3728v2c6 gp160 DC (HIV-1 subtype C isolate C3728v2c6); test: gp160 antigen capture ELISA, 4E10 as capture antibody; media of transfected HEK293 cells, 48 h (negative control 0.123)
[29] = target: HIV-1 subtype C C3728v2c6 gp160 (HIV-1 subtype C isolate C3728v2c6); test: as above
[30] = target: HIV-1 Ba-L gp145 (HIV-1 Ba-L (subtype B)); test: as above
[31] = target: HIV-1 subtype C C06980v1c3 gp160 (HIV-1 subtype C isolate C06980v1c3); test: as above
[32] = target: HIV-1 subtype C C06980v0c22 gp160 DC (HIV-1 subtype C isolate C06980v0c22); test: as above
[33] = target: HIV-1 subtype C C06980v1c3 gp160 DC (HIV-1 subtype C isolate C06980v1c3); test: as above
[34] = target: HIV-1 subtype C C06838v1c48 gp160 (HIV-1 subtype C isolate C06838v1c48); test: as above
[35] = target: HIV-1 subtype C C06838v1c48 gp160 DC (HIV-1 subtype C isolate C06838v1c48); test: as above
[36] = target: HIV-1 subtype C C06980v0c22 gp160 (HIV-1 subtype C isolate C06980v0c22); test: as above

Q: How did the OD 450 nm [1] turn out when “2F5 human monoclonal antibody to the gp41 MPER” was run?
A: 0.829 OD 450 nm

Q: And the OD 450 nm [2]?
A: 0.781 OD 450 nm

Q: And the OD 450 nm [3]?
A: 2.64 OD 450 nm

Q: And the OD 450 nm [4]?
A: 0.399 OD 450 nm

Q: And the OD 450 nm [5]?
A: 1.21 OD 450 nm

Q: And the OD 450 nm [6]?
A: 0.446 OD 450 nm

Q: What about the OD 450 nm [7] of the same substance?
A: 0.53 OD 450 nm

Q: What about the OD 450 nm [8] of the same substance?
A: 0.506 OD 450 nm

Q: And the OD 450 nm [9]?
A: 1.46 OD 450 nm

Q: And the OD 450 nm [10]?
A: 0.219 OD 450 nm

Q: What about the OD 450 nm [11] of the same substance?
A: 0.198 OD 450 nm

Q: What about the OD 450 nm [12] of the same substance?
A: 2.27 OD 450 nm

Q: And the OD 450 nm [13]?
A: 0.2 OD 450 nm

Q: And the OD 450 nm [14]?
A: 0.298 OD 450 nm

Q: What about the OD 450 nm [15] of the same substance?
A: 0.179 OD 450 nm

Q: And the OD 450 nm [16]?
A: 0.146 OD 450 nm

Q: And the OD 450 nm [17]?
A: 0.155 OD 450 nm

Q: And the OD 450 nm [18]?
A: 0.344 OD 450 nm

Q: For “4E10 human monoclonal antibody to the gp41 MPER”, which OD 450 nm [19] is on record?
A: 2.65 OD 450 nm

Q: And the OD 450 nm [20]?
A: 2.78 OD 450 nm

Q: What about the OD 450 nm [21] of the same substance?
A: 2.55 OD 450 nm

Q: And the OD 450 nm [22]?
A: 2.72 OD 450 nm

Q: What about the OD 450 nm [23] of the same substance?
A: 2.62 OD 450 nm

Q: And the OD 450 nm [24]?
A: 2.59 OD 450 nm

Q: What about the OD 450 nm [25] of the same substance?
A: 2.65 OD 450 nm

Q: And the OD 450 nm [26]?
A: 2.7 OD 450 nm

Q: What about the OD 450 nm [27] of the same substance?
A: 2.74 OD 450 nm

Q: What about the OD 450 nm [28] of the same substance?
A: 0.681 OD 450 nm

Q: And the OD 450 nm [29]?
A: 0.589 OD 450 nm

Q: And the OD 450 nm [30]?
A: 2.42 OD 450 nm

Q: And the OD 450 nm [31]?
A: 0.926 OD 450 nm

Q: And the OD 450 nm [32]?
A: 2.61 OD 450 nm

Q: What about the OD 450 nm [33] of the same substance?
A: 1.1 OD 450 nm

Q: What about the OD 450 nm [34] of the same substance?
A: 0.146 OD 450 nm

Q: What about the OD 450 nm [35] of the same substance?
A: 0.162 OD 450 nm

Q: What about the OD 450 nm [36] of the same substance?
A: 2.53 OD 450 nm
